From publication PMC7449927

Assays:
[1] = CHX chase western blot (half-life), TMG; conditions: glycan lost; control: wild-type SIX1, TMG-treated
[2] = ubiquitin affinity bead pulldown, SIX1 blot, MG132 and NEM; conditions: glycan lost; control: wild-type SIX1, TMG-treated
[3] = western blot, BEL7402-SIX1KO rescue cells, TMG; conditions: glycan lost; control: wild-type SIX1, TMG-treated
[4] = western blot, BEL7402 and BEL7404 cells; conditions: glycan lost; control: untreated / control lentivirus

Row | Protein | degradation_or_half_life [1] | other: ubiquitination [2] | expression_or_secretion [3] | expression_or_secretion [4]
1 | SIX1 (sine oculis homeobox homolog 1): T276A (protein) parent chain: MSMLPSFGFTQEQVACVCEVLQQGGNLERLGRFLWSLPACDHLHKNESVLKAKAVVAFHRGNFRELYKILESHQFSPHNHPKLQQLWLKAHYVEAEKLRGRPLGAVGKYRVRRKFPLPRTIWDGEETSYCFKEKSRGVLREWYAHNPYPSPREKRELAEATGLTTTQVSNWFKNRRQRDRAAEAKERENTENNNSSSNKQNQLSPLEGGKPLMSSSEEEFSPPQSPDQNSVLLLQGNMGHARSSNYSLPGLTASQPSHGLQTHQHQLQDSLLGPLTSSLVDLGS | decreases | increases | decreases | –
2 | SIX1 (sine oculis homeobox homolog 1): OGT knockdown (protein) parent chain: MSMLPSFGFTQEQVACVCEVLQQGGNLERLGRFLWSLPACDHLHKNESVLKAKAVVAFHRGNFRELYKILESHQFSPHNHPKLQQLWLKAHYVEAEKLRGRPLGAVGKYRVRRKFPLPRTIWDGEETSYCFKEKSRGVLREWYAHNPYPSPREKRELAEATGLTTTQVSNWFKNRRQRDRAAEAKERENTENNNSSSNKQNQLSPLEGGKPLMSSSEEEFSPPQSPDQNSVLLLQGNMGHARSSNYSLPGLTASQPSHGLQTHQHQLQDSLLGPLTSSLVDLGS | – | – | – | decreases
